From patent US20120238493A1 (INDIANA UNIVERSITY RESEARCH AND TECHNOLOGY, published 2012)
*1 amine or outer side, *2 acyl side, *3 side chain or, on linkers, in order; H or OH if unused. Where no end group is shown, it is not given here. Side-chain parts run from the residue outwards. [ ]: non-standard residue; d: D form. The star is where a group is joined. γGlu = O=C(O)[C@H](CCC(=O)[*:2])N[*:1]; Palmitoyl = CCCCCCCCCCCCCCCC(=O)*; Myristoyl = CCCCCCCCCCCCCC(=O)*; 40K‑ME = not defined here; 40K‑TE = not defined here; Ac3c = NC1(C(=O)O)CC1; Aib = CC(C)(N)C(=O)O

T1: GIP receptor (UniProt P48546 22-466, limits assumed)
T1 sequence (looked up): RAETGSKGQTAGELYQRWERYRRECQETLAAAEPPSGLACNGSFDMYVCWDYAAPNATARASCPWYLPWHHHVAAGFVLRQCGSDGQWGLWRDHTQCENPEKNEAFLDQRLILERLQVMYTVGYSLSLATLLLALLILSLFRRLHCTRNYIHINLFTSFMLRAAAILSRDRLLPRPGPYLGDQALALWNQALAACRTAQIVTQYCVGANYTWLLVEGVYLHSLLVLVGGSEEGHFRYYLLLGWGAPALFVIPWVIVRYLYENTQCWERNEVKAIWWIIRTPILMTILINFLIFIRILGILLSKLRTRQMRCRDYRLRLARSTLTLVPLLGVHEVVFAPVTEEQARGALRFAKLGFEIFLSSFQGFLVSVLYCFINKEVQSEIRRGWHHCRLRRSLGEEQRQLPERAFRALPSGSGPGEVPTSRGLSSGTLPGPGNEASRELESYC

B1: peptide of SEQ ID NO: 48 (peptide)
peptide: H[dS]QGTFTSDYSIYLDKQAA[Aib]EFVNWLLAGGPSSGAPPPSC-NH2
modifications: N-terminus assumed
SMILES: CC[C@H](C)[C@H](NC(=O)[C@H](CO)NC(=O)[C@H](Cc1ccc(O)cc1)NC(=O)[C@H](CC(=O)O)NC(=O)[C@H](CO)NC(=O)[C@@H](NC(=O)[C@H](Cc1ccccc1)NC(=O)[C@@H](NC(=O)CNC(=O)[C@H](CCC(N)=O)NC(=O)[C@@H](CO)NC(=O)[C@@H](N)Cc1c[nH]cn1)[C@@H](C)O)[C@@H](C)O)C(=O)N[C@@H](Cc1ccc(O)cc1)C(=O)N[C@@H](CC(C)C)C(=O)N[C@@H](CC(=O)O)C(=O)N[C@@H](CCCCN)C(=O)N[C@@H](CCC(N)=O)C(=O)N[C@@H](C)C(=O)N[C@@H](C)C(=O)NC(C)(C)C(=O)N[C@@H](CCC(=O)O)C(=O)N[C@@H](Cc1ccccc1)C(=O)N[C@H](C(=O)N[C@@H](CC(N)=O)C(=O)N[C@@H](Cc1c[nH]c2ccccc12)C(=O)N[C@@H](CC(C)C)C(=O)N[C@@H](CC(C)C)C(=O)N[C@@H](C)C(=O)NCC(=O)NCC(=O)N1CCC[C@H]1C(=O)N[C@@H](CO)C(=O)N[C@@H](CO)C(=O)NCC(=O)N[C@@H](C)C(=O)N1CCC[C@H]1C(=O)N1CCC[C@H]1C(=O)N1CCC[C@H]1C(=O)N[C@@H](CO)C(=O)N[C@@H](CS)C(N)=O)C(C)C
B2: peptide of SEQ ID NO: 50 (peptide)
peptide: Y[dS]QGTFTSDYSIYLDKQAA[Aib]EFVNWLLAGGPSSGAPPPSC-NH2
modifications: N-terminus assumed
SMILES: CC[C@H](C)[C@H](NC(=O)[C@H](CO)NC(=O)[C@H](Cc1ccc(O)cc1)NC(=O)[C@H](CC(=O)O)NC(=O)[C@H](CO)NC(=O)[C@@H](NC(=O)[C@H](Cc1ccccc1)NC(=O)[C@@H](NC(=O)CNC(=O)[C@H](CCC(N)=O)NC(=O)[C@@H](CO)NC(=O)[C@@H](N)Cc1ccc(O)cc1)[C@@H](C)O)[C@@H](C)O)C(=O)N[C@@H](Cc1ccc(O)cc1)C(=O)N[C@@H](CC(C)C)C(=O)N[C@@H](CC(=O)O)C(=O)N[C@@H](CCCCN)C(=O)N[C@@H](CCC(N)=O)C(=O)N[C@@H](C)C(=O)N[C@@H](C)C(=O)NC(C)(C)C(=O)N[C@@H](CCC(=O)O)C(=O)N[C@@H](Cc1ccccc1)C(=O)N[C@H](C(=O)N[C@@H](CC(N)=O)C(=O)N[C@@H](Cc1c[nH]c2ccccc12)C(=O)N[C@@H](CC(C)C)C(=O)N[C@@H](CC(C)C)C(=O)N[C@@H](C)C(=O)NCC(=O)NCC(=O)N1CCC[C@H]1C(=O)N[C@@H](CO)C(=O)N[C@@H](CO)C(=O)NCC(=O)N[C@@H](C)C(=O)N1CCC[C@H]1C(=O)N1CCC[C@H]1C(=O)N1CCC[C@H]1C(=O)N[C@@H](CO)C(=O)N[C@@H](CS)C(N)=O)C(C)C
B3: peptide of SEQ ID NO: 52 (peptide)
peptide: H[Aib]QGTFTSDYSIYLDKQAA[Aib]EFVNWLLAGGPSSGAPPPSC-NH2
modifications: N-terminus assumed
SMILES: CC[C@H](C)[C@H](NC(=O)[C@H](CO)NC(=O)[C@H](Cc1ccc(O)cc1)NC(=O)[C@H](CC(=O)O)NC(=O)[C@H](CO)NC(=O)[C@@H](NC(=O)[C@H](Cc1ccccc1)NC(=O)[C@@H](NC(=O)CNC(=O)[C@H](CCC(N)=O)NC(=O)C(C)(C)NC(=O)[C@@H](N)Cc1c[nH]cn1)[C@@H](C)O)[C@@H](C)O)C(=O)N[C@@H](Cc1ccc(O)cc1)C(=O)N[C@@H](CC(C)C)C(=O)N[C@@H](CC(=O)O)C(=O)N[C@@H](CCCCN)C(=O)N[C@@H](CCC(N)=O)C(=O)N[C@@H](C)C(=O)N[C@@H](C)C(=O)NC(C)(C)C(=O)N[C@@H](CCC(=O)O)C(=O)N[C@@H](Cc1ccccc1)C(=O)N[C@H](C(=O)N[C@@H](CC(N)=O)C(=O)N[C@@H](Cc1c[nH]c2ccccc12)C(=O)N[C@@H](CC(C)C)C(=O)N[C@@H](CC(C)C)C(=O)N[C@@H](C)C(=O)NCC(=O)NCC(=O)N1CCC[C@H]1C(=O)N[C@@H](CO)C(=O)N[C@@H](CO)C(=O)NCC(=O)N[C@@H](C)C(=O)N1CCC[C@H]1C(=O)N1CCC[C@H]1C(=O)N1CCC[C@H]1C(=O)N[C@@H](CO)C(=O)N[C@@H](CS)C(N)=O)C(C)C
B4: peptide of SEQ ID NO: 54 (peptide)
peptide: Y[Aib]QGTFTSDYSIYLDKQAA[Aib]EFV[Aib]WLLAGGPSSGAPPPSC-NH2
modifications: N-terminus assumed
SMILES: CC[C@H](C)[C@H](NC(=O)[C@H](CO)NC(=O)[C@H](Cc1ccc(O)cc1)NC(=O)[C@H](CC(=O)O)NC(=O)[C@H](CO)NC(=O)[C@@H](NC(=O)[C@H](Cc1ccccc1)NC(=O)[C@@H](NC(=O)CNC(=O)[C@H](CCC(N)=O)NC(=O)C(C)(C)NC(=O)[C@@H](N)Cc1ccc(O)cc1)[C@@H](C)O)[C@@H](C)O)C(=O)N[C@@H](Cc1ccc(O)cc1)C(=O)N[C@@H](CC(C)C)C(=O)N[C@@H](CC(=O)O)C(=O)N[C@@H](CCCCN)C(=O)N[C@@H](CCC(N)=O)C(=O)N[C@@H](C)C(=O)N[C@@H](C)C(=O)NC(C)(C)C(=O)N[C@@H](CCC(=O)O)C(=O)N[C@@H](Cc1ccccc1)C(=O)N[C@H](C(=O)NC(C)(C)C(=O)N[C@@H](Cc1c[nH]c2ccccc12)C(=O)N[C@@H](CC(C)C)C(=O)N[C@@H](CC(C)C)C(=O)N[C@@H](C)C(=O)NCC(=O)NCC(=O)N1CCC[C@H]1C(=O)N[C@@H](CO)C(=O)N[C@@H](CO)C(=O)NCC(=O)N[C@@H](C)C(=O)N1CCC[C@H]1C(=O)N1CCC[C@H]1C(=O)N1CCC[C@H]1C(=O)N[C@@H](CO)C(=O)N[C@@H](CS)C(N)=O)C(C)C
B5: peptide of SEQ ID NO: 56 (peptide)
peptide: Y[Aib]QGTFTSDYSIYLDEQAAKEFV[Aib]WLLAGGPSSGAPPPSC-NH2
modifications: lactam (positions not given here); also: lactam between underlined residues, underlining not shown
B6: peptide of SEQ ID NO: 58 (peptide)
peptide: Y[Aib]QGTFTSDYSIYLDKEAA[Aib]KFVNWLLAGGPSSGAPPPSC-NH2
modifications: lactam (positions not given here); also: lactam between underlined residues, underlining not shown
B7: peptide of SEQ ID NO: 59 (peptide)
peptide: Y[Aib]QGTFTSDYSIYLDKEAA[Aib]KFVNWLLAGGPSSGAPPPSC(40K‑TE)-NH2
modifications: lactam (positions not given here); reading uncertain; also: lactam between underlined residues, underlining not shown

What was measured:
Experiment in all cases: cell-based or functional assay
glucagon receptor = glucagon receptor (UniProt P47871 26-477, limits assumed)
GIP receptor = molecular target: T1, GIP receptor
GLP-1 receptor = GLP-1 receptor (UniProt P43220 24-463, limits assumed)

Chain of glucagon receptor (P47871 26-477 limits assumed): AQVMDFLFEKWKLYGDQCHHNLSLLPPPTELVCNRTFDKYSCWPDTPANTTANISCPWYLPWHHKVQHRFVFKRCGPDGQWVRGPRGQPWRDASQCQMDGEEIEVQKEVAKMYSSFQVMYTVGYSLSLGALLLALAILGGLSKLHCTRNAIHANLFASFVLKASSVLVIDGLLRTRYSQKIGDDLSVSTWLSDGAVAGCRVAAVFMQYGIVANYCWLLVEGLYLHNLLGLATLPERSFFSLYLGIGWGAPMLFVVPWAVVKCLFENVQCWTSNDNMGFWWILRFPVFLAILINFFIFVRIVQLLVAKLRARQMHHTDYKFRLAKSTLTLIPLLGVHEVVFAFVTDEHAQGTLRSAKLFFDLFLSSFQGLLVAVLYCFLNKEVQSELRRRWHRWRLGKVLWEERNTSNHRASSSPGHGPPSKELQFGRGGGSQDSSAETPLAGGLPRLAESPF

Binder | EC50 (cAMP reporter) (glucagon receptor) | EC50 (cAMP reporter) (GIP receptor) | EC50 (cAMP reporter) (GLP-1 receptor)
B1 | 26 pM | 433 pM | 10 pM
B2 | 41 pM | 72 pM | 108 pM
Y[dS]QGTFTSDYSIYLDKQAA[Aib]EFVNWLLAGGPSSGAPPPSC(40K‑TE)-NH2 (reading uncertain) [peptide of SEQ ID NO: 51] | 255 pM | 433 pM | 572 pM
B3 | 200 pM | 6 pM | 5 pM
H[Aib]QGTFTSDYSIYLDKQAA[Aib]EFVNWLLAGGPSSGAPPPSC(40K‑TE)-NH2 (reading uncertain) [peptide of SEQ ID NO: 53] | 3510 pM | 232 pM | 27 pM
B4 | 566 pM | 467 pM | 91 pM
B5 | 1270 pM | 1980 pM | 96 pM
B6 | 63 pM | 5 pM | 14 pM
B7 | 432 pM | 122 pM | 63 pM
Y[Aib]QGTFTSDYSIYLDKQAA[Ac3c]EFVNWLLAGGPSSGAPPPSC-NH2 [peptide of SEQ ID NO: 60] | 47 pM |  | 2.8 pM
Y[Aib]QGTFTSDK([γGlu-Myristoyl])SIYLDKQAA[Aib]EFVNWLLAGGPSSGAPPPSC(40K‑ME)-NH2 (reading uncertain) [peptide of SEQ ID NO: 68] | 50100 pM | 862 pM | 612 pM
Y[Aib]QGTFTSDK([γGlu-Palmitoyl])SIYLDKQAA[Aib]EFVNWLLAGGPSSGAPPPSC(40K‑ME)-NH2 (reading uncertain) [peptide of SEQ ID NO: 69] | 55 pM | 15 pM | 20 pM
Y[Aib]QGTFTSDYSIYLDKQAA[Aib]EFVC(40K‑ME)WLLAGGPSSGAPPPSK(Palmitoyl)-NH2 (not fully specified; reading uncertain) [peptide of SEQ ID NO: 70] | 18 pM | 14 pM | 7 pM
Y[Aib]EGTFISDYSIYLDKQAA[Aib]EFVNWLLAGGPSSGAPPPSC(40K‑TE)-NH2 (not fully specified; reading uncertain) [peptide of SEQ ID NO: 72] | 1680 pM | 35 pM | 2690 pM
Y[Aib]QGTFTSDYSIYLDKQAA[Aib]EFVC(40K‑TE PEG)WLLAGGPSSGAPPPSK(C14)-NH2 [peptide of SEQ ID NO: 174] |  | 19 pM | 10 pM
